{"source": "paper PMC12465037", "about": "“Defective targeting of PNPLA1 to lipid droplets causes ichthyosis in ABHD5-syndromic epidermal differentiation disorder” (Journal of Lipid Research, 2025)", "biological_target": "T1, 3xFLAG-tagged full-length human PNPLA1, partially purified (pcDNA4/HisMaxC-mut-3xFLAG-hsPNPLA1) (human, UniProt Q8N8W4-1 1-532)", "T1 construct": "human PNPLA1, full-length open reading frame of NM_001145717.1; also called 3xFLAG-PNPLA1; source: Expi293F, transfected, partially purified (IMAC, HisTrap HP)", "T1 sequence (looked up)": "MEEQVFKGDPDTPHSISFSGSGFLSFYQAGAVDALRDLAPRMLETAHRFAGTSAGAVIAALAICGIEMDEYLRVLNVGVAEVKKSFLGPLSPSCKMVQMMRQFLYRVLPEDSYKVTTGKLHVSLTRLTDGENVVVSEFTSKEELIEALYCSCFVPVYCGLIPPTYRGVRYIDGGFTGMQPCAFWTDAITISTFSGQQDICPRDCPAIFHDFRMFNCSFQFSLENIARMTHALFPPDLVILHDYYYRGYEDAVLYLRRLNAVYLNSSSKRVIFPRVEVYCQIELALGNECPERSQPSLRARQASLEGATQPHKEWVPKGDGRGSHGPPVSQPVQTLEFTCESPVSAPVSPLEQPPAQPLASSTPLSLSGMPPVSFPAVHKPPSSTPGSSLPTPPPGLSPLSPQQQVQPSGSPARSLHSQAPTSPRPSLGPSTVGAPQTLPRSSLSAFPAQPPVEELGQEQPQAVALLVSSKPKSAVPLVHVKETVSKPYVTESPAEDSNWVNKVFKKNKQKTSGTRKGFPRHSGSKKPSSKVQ", "assay": "ELISA; solid-phase interaction assay: 1.8 μg/well of purified 3xFLAG-PNPLA1, PLIN2 or PLIN3 coated on MaxiSorp plates (50 mM Tris-HCl pH 8.0, 200 mM NaCl); 40 μg HEK293T lysate with Xpress-tagged ABHD5 variants in TBS with 2% BSA and 0.05% Tween 20, overnight at 4°C; anti-Xpress and HRP secondary antibody, TMB, absorbance at 620 nm, background subtracted and normalised to expression", "settings": "one partner purified"}
{"binder": "Xpress-tagged human ABHD5 p.E260K (natural protein, UniProt Q8WTS1 1-349, looked up, human ABHD5, full-length open reading frame of NM_016006.6 with the patient mutation p.E260K; Disease-associated (ABHD5-sEDD) missense variant made by site-directed mutagenesis; source: HEK293T, transfected (pcDNA4/HisMaxC), in lysate) MAAEEEEVDSADTGERSGWLTGWLPTWCPTSISHLKEAEEKMLKCVPCTYKKEPVRISNGNKIWTLKFSHNISNKTPLVLLHGFGGGLGLWALNFGDLCTNRPVYAFDLLGFGRSSRPRFDSDAEEVENQFVESIEEWRCALGLDKMILLGHNLGGFLAAAYSLKYPSRVNHLILVEPWGFPERPDLADQDRPIPVWIRALGAALTPFNPLAGLRIAGPFGLSLVQRLRPDFKRKYSSMFEDDTVTEYIYHCNVQTPSGKTAFKNMTIPYGWAKRPMLQRIGKMHPDIPVSVIFGARSCIDGNSGTSIQSLRPHSYVKTIAILGAGHYVYADQPEEFNQKVKEICDTVD", "values": [{"measurement": "change of PNPLA1 binding (normalised absorbance) against wild-type ABHD5", "value": 25, "unit": "%"}]}
{"binder": "Xpress-tagged human ABHD5 p.G271R (natural protein, UniProt Q8WTS1 1-349, looked up, human ABHD5, full-length open reading frame of NM_016006.6 with the patient mutation p.G271R; Disease-associated (ABHD5-sEDD) missense variant made by site-directed mutagenesis; source: HEK293T, transfected (pcDNA4/HisMaxC), in lysate) MAAEEEEVDSADTGERSGWLTGWLPTWCPTSISHLKEAEEKMLKCVPCTYKKEPVRISNGNKIWTLKFSHNISNKTPLVLLHGFGGGLGLWALNFGDLCTNRPVYAFDLLGFGRSSRPRFDSDAEEVENQFVESIEEWRCALGLDKMILLGHNLGGFLAAAYSLKYPSRVNHLILVEPWGFPERPDLADQDRPIPVWIRALGAALTPFNPLAGLRIAGPFGLSLVQRLRPDFKRKYSSMFEDDTVTEYIYHCNVQTPSGETAFKNMTIPYRWAKRPMLQRIGKMHPDIPVSVIFGARSCIDGNSGTSIQSLRPHSYVKTIAILGAGHYVYADQPEEFNQKVKEICDTVD", "values": [{"measurement": "change of PNPLA1 binding (normalised absorbance) against wild-type ABHD5", "value": -59, "unit": "%"}]}
{"binder": "Xpress-tagged human ABHD5 p.H82R (natural protein, UniProt Q8WTS1 1-349, looked up, human ABHD5, full-length open reading frame of NM_016006.6 with the patient mutation p.H82R; Disease-associated (ABHD5-sEDD) missense variant made by site-directed mutagenesis; source: HEK293T, transfected (pcDNA4/HisMaxC), in lysate) MAAEEEEVDSADTGERSGWLTGWLPTWCPTSISHLKEAEEKMLKCVPCTYKKEPVRISNGNKIWTLKFSHNISNKTPLVLLRGFGGGLGLWALNFGDLCTNRPVYAFDLLGFGRSSRPRFDSDAEEVENQFVESIEEWRCALGLDKMILLGHNLGGFLAAAYSLKYPSRVNHLILVEPWGFPERPDLADQDRPIPVWIRALGAALTPFNPLAGLRIAGPFGLSLVQRLRPDFKRKYSSMFEDDTVTEYIYHCNVQTPSGETAFKNMTIPYGWAKRPMLQRIGKMHPDIPVSVIFGARSCIDGNSGTSIQSLRPHSYVKTIAILGAGHYVYADQPEEFNQKVKEICDTVD", "values": [{"measurement": "change of PNPLA1 binding (normalised absorbance) against wild-type ABHD5", "value": 44, "unit": "%"}]}
{"binder": "Xpress-tagged human ABHD5 p.Q130P (natural protein, UniProt Q8WTS1 1-349, looked up, human ABHD5, full-length open reading frame of NM_016006.6 with the patient mutation p.Q130P; Disease-associated (ABHD5-sEDD) missense variant made by site-directed mutagenesis; source: HEK293T, transfected (pcDNA4/HisMaxC), in lysate) MAAEEEEVDSADTGERSGWLTGWLPTWCPTSISHLKEAEEKMLKCVPCTYKKEPVRISNGNKIWTLKFSHNISNKTPLVLLHGFGGGLGLWALNFGDLCTNRPVYAFDLLGFGRSSRPRFDSDAEEVENPFVESIEEWRCALGLDKMILLGHNLGGFLAAAYSLKYPSRVNHLILVEPWGFPERPDLADQDRPIPVWIRALGAALTPFNPLAGLRIAGPFGLSLVQRLRPDFKRKYSSMFEDDTVTEYIYHCNVQTPSGETAFKNMTIPYGWAKRPMLQRIGKMHPDIPVSVIFGARSCIDGNSGTSIQSLRPHSYVKTIAILGAGHYVYADQPEEFNQKVKEICDTVD", "values": [{"measurement": "change of PNPLA1 binding (normalised absorbance) against wild-type ABHD5", "value": 16, "unit": "%"}]}
{"binder": "Xpress-tagged human ABHD5 p.R297N (natural protein, UniProt Q8WTS1 1-349, looked up, human ABHD5, full-length open reading frame of NM_016006.6 with the patient mutation p.R297N; Disease-associated (ABHD5-sEDD) missense variant made by site-directed mutagenesis; source: HEK293T, transfected (pcDNA4/HisMaxC), in lysate) MAAEEEEVDSADTGERSGWLTGWLPTWCPTSISHLKEAEEKMLKCVPCTYKKEPVRISNGNKIWTLKFSHNISNKTPLVLLHGFGGGLGLWALNFGDLCTNRPVYAFDLLGFGRSSRPRFDSDAEEVENQFVESIEEWRCALGLDKMILLGHNLGGFLAAAYSLKYPSRVNHLILVEPWGFPERPDLADQDRPIPVWIRALGAALTPFNPLAGLRIAGPFGLSLVQRLRPDFKRKYSSMFEDDTVTEYIYHCNVQTPSGETAFKNMTIPYGWAKRPMLQRIGKMHPDIPVSVIFGANSCIDGNSGTSIQSLRPHSYVKTIAILGAGHYVYADQPEEFNQKVKEICDTVD", "values": [{"measurement": "change of PNPLA1 binding (normalised absorbance) against wild-type ABHD5", "value": -87, "unit": "%"}]}
{"binder": "Xpress-tagged human ABHD5 p.S115G (natural protein, UniProt Q8WTS1 1-349, looked up, human ABHD5, full-length open reading frame of NM_016006.6 with the patient mutation p.S115G; Disease-associated (ABHD5-sEDD) missense variant made by site-directed mutagenesis; source: HEK293T, transfected (pcDNA4/HisMaxC), in lysate) MAAEEEEVDSADTGERSGWLTGWLPTWCPTSISHLKEAEEKMLKCVPCTYKKEPVRISNGNKIWTLKFSHNISNKTPLVLLHGFGGGLGLWALNFGDLCTNRPVYAFDLLGFGRGSRPRFDSDAEEVENQFVESIEEWRCALGLDKMILLGHNLGGFLAAAYSLKYPSRVNHLILVEPWGFPERPDLADQDRPIPVWIRALGAALTPFNPLAGLRIAGPFGLSLVQRLRPDFKRKYSSMFEDDTVTEYIYHCNVQTPSGETAFKNMTIPYGWAKRPMLQRIGKMHPDIPVSVIFGARSCIDGNSGTSIQSLRPHSYVKTIAILGAGHYVYADQPEEFNQKVKEICDTVD", "values": [{"measurement": "change of PNPLA1 binding (normalised absorbance) against wild-type ABHD5", "value": -17, "unit": "%"}]}
